From paper PMC12169553

Legend:
Test in all cases: SEC; Superdex 200 increase column, 40 mM potassium phosphate, 300 mM NaCl, pH 6.5, 1 mL/min, detection at 220 nm; drug products reconstituted in water for injection
[1] = target: L-Aspase (E. coli L-asparaginase) (E. coli) (UniProt P00805)
[2] = target: T1, Spectrila (recombinant E. coli L-asparaginase type II) (E. coli), P00805; conditions: remark: other sources report otherwise
T1 chain: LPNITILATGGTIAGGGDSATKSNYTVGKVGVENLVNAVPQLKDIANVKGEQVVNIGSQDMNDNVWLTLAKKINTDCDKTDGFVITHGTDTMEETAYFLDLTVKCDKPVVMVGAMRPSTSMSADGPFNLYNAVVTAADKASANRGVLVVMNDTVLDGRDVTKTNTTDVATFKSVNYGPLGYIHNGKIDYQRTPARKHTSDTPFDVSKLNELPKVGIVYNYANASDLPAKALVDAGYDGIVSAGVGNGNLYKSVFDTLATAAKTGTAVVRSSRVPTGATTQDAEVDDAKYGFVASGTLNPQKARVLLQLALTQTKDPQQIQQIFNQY

[3] = target: T2, Bionase (E. coli L-asparaginase) (E. coli), P00805; conditions: remark: other sources report otherwise
T2 chain: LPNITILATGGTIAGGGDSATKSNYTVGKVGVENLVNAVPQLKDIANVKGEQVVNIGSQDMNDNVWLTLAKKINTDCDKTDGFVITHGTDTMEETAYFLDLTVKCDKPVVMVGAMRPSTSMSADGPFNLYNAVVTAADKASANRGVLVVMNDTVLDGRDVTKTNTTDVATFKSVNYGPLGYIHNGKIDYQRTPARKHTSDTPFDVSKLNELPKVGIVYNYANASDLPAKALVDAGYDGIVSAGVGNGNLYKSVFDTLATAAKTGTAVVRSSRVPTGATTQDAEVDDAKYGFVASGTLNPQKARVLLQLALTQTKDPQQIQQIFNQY

[4] = target: T3, Celginase (E. coli L-asparaginase) (E. coli), P00805; conditions: remark: other sources report otherwise
T3 chain: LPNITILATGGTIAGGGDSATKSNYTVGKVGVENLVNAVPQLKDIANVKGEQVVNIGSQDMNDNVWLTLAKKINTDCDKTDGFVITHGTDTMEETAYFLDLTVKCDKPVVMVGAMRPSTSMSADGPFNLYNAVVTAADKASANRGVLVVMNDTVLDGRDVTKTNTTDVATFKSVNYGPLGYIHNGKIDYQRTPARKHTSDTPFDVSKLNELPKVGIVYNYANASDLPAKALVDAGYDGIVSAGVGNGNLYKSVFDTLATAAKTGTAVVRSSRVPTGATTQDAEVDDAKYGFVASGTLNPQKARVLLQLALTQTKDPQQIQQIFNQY

L-Aspase (E. coli L-asparaginase) (from UniProt P00805 23-348) (enzyme)
stoichiometry N [1]: 4

B1: Spectrila (recombinant E. coli L-asparaginase type II), P00805 23-348 (enzyme)
chain: LPNITILATGGTIAGGGDSATKSNYTVGKVGVENLVNAVPQLKDIANVKGEQVVNIGSQDMNDNVWLTLAKKINTDCDKTDGFVITHGTDTMEETAYFLDLTVKCDKPVVMVGAMRPSTSMSADGPFNLYNAVVTAADKASANRGVLVVMNDTVLDGRDVTKTNTTDVATFKSVNYGPLGYIHNGKIDYQRTPARKHTSDTPFDVSKLNELPKVGIVYNYANASDLPAKALVDAGYDGIVSAGVGNGNLYKSVFDTLATAAKTGTAVVRSSRVPTGATTQDAEVDDAKYGFVASGTLNPQKARVLLQLALTQTKDPQQIQQIFNQY
stoichiometry N [2]: 4

B2: Bionase (E. coli L-asparaginase), P00805 23-348 (enzyme)
chain: LPNITILATGGTIAGGGDSATKSNYTVGKVGVENLVNAVPQLKDIANVKGEQVVNIGSQDMNDNVWLTLAKKINTDCDKTDGFVITHGTDTMEETAYFLDLTVKCDKPVVMVGAMRPSTSMSADGPFNLYNAVVTAADKASANRGVLVVMNDTVLDGRDVTKTNTTDVATFKSVNYGPLGYIHNGKIDYQRTPARKHTSDTPFDVSKLNELPKVGIVYNYANASDLPAKALVDAGYDGIVSAGVGNGNLYKSVFDTLATAAKTGTAVVRSSRVPTGATTQDAEVDDAKYGFVASGTLNPQKARVLLQLALTQTKDPQQIQQIFNQY
stoichiometry N [3]: 4

B3: Celginase (E. coli L-asparaginase), P00805 23-348 (enzyme)
chain: LPNITILATGGTIAGGGDSATKSNYTVGKVGVENLVNAVPQLKDIANVKGEQVVNIGSQDMNDNVWLTLAKKINTDCDKTDGFVITHGTDTMEETAYFLDLTVKCDKPVVMVGAMRPSTSMSADGPFNLYNAVVTAADKASANRGVLVVMNDTVLDGRDVTKTNTTDVATFKSVNYGPLGYIHNGKIDYQRTPARKHTSDTPFDVSKLNELPKVGIVYNYANASDLPAKALVDAGYDGIVSAGVGNGNLYKSVFDTLATAAKTGTAVVRSSRVPTGATTQDAEVDDAKYGFVASGTLNPQKARVLLQLALTQTKDPQQIQQIFNQY
stoichiometry N [4]: 4
